# Results from PMC9927474.
# Test system: T1, GST-NolA (Bradyrhizobium guangxiense CCBAU53363), ORF:43be7f56
# T1 sequence: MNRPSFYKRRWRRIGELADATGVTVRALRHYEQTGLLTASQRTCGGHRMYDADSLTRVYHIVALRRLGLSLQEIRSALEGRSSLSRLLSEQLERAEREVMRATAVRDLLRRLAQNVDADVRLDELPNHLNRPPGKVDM
# Assay: EMSA
# Settings: EMSA: 10 uL, 1x binding buffer (composition, salt and pH not stated), 1 mg/mL BSA, 1 mg/mL salmon sperm DNA, 25 C, 30 min; 6% native PAGE in TB buffer (44.5 mM …)
sequence,measurement,value
TGTGAACCATAGGAGAGTGCTCATCATGTACGGTCGAATCAACAATTTTTCCGAGAACGAAACTTATTATCGGCAAGATGCGGAGCATTCGAATTGCGAAAGCCAAGACTTCGCGGACGCGTTCGCTAGAATGCAGTTGCAAGATTCGGCCGGCAG (double strand) [nopP promoter probe],binding,no binding
